The values below come from publication PMC13017536 (Nature, 2026).

As usually defined, the stoichiometry N is a count of units in the complex or per binding partner.

The assay has as its target T1, His-tagged LetA (N-terminal 6×His2xQH-TEV-tagged LetA) (E. coli, UniProt P0AD03 1-427).
T1 sequence (looked up): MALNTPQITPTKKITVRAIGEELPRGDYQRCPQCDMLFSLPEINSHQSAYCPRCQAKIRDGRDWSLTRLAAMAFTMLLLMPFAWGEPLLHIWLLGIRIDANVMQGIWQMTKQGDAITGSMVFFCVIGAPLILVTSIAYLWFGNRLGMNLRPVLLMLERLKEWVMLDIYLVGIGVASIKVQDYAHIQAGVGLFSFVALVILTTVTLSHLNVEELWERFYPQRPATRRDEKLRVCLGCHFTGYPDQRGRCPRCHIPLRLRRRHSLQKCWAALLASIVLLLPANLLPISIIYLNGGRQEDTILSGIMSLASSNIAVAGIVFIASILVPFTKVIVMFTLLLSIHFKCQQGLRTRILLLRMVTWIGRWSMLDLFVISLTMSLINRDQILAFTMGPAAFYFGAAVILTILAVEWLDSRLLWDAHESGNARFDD
Kind of assay: cryo-EM structure.

B1: LetB (lipophilic envelope-spanning tunnel B), untagged (natural protein, E. coli, UniProt P76272 1-877, looked up)
chain: MSQETPASTTEAQIKNKRRISPFWLLPFIALMIASWLIWDSYQDRGNTVTIDFMSADGIVPGRTPVRYQGVEVGTVQDISLSDDLRKIEVKVSIKSDMKDALREETQFWLVTPKASLAGVSGLDALVGGNYIGMMPGKGKEQDHFVALDTQPKYRLDNGDLMIHLQAPDLGSLNSGSLVYFRKIPVGKVYDYAINPNKQGVVIDVLIERRFTDLVKKGSRFWNVSGVDANVSISGAKVKLESLAALVNGAIAFDSPEESKPAEAEDTFGLYEDLAHSQRGVIIKLELPSGAGLTADSTPLMYQGLEVGQLTKLDLNPGGKVTGEMTVDPSVVTLLRENTRIELRNPKLSLSDANLSALLTGKTFELVPGDGEPRKEFVVVPGEKALLHEPDVLTLTLTAPESYGIDAGQPLILHGVQVGQVIDRKLTSKGVTFTVAIEPQHRELVKGDSKFVVNSRVDVKVGLDGVEFLGASASEWINGGIRILPGDKGEMKASYPLYANLEKALENSLSDLPTTTVSLSAETLPDVQAGSVVLYRKFEVGEVITVRPRANAFDIDLHIKPEYRNLLTSNSVFWAEGGAKVQLNGSGLTVQASPLSRALKGAISFDNLSGASASQRKGDKRILYASETAARAVGGQITLHAFDAGKLAVGMPIRYLGIDIGQIQTLDLITARNEVQAKAVLYPEYVQTFARGGTRFSVVTPQISAAGVEHLDTILQPYINVEPGRGNPRRDFELQEATITDSRYLDGLSIIVEAPEAGSLGIGTPVLFRGLEVGTVTGMTLGTLSDRVMIAMRISKRYQHLVRNNSVFWLASGYSLDFGLTGGVVKTGTFNQFIRGGIAFATPPGTPLAPKAQEGKHFLLQESEPKEWREWGTALPK
In the case of B1, the “stoichiometry N” value turned out to be 6 LetB per LetA.
